Data on 11 molecules can be found in patent US20220185874A1 (ROCHE DIAGNOSTICS OPERATIONS, published 2022).

The chains are these.
B1: mAb<TnT>rM-11-7 Fab A102D (Fab, V domains shown)
VH: QIQLVQSGPELKKPGETVKISCKASGYTFTDFSMHWVKQAPGKGLKWMGWINTETGEPTYADDFKGRFAFSLETSATTAYLQINNLKNEDTATYFCVRSHDMDYWGQGTSVTVSS
VL: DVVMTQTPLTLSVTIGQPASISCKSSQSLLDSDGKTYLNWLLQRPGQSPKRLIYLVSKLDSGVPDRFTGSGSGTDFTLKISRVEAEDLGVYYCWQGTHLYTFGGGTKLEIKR
notes: Murine CH1 and CL, E. coli periplasmic lysate
B2: mAb<TnT>rM-11-7 Fab A102W (Fab, V domains shown)
VH: QIQLVQSGPELKKPGETVKISCKASGYTFTDFSMHWVKQAPGKGLKWMGWINTETGEPTYADDFKGRFAFSLETSATTAYLQINNLKNEDTATYFCVRSHWMDYWGQGTSVTVSS
VL: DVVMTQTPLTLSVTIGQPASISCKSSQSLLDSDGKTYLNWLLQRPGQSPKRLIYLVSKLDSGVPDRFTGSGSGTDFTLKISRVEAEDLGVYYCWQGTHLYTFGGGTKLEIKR
notes: as for B1
B3: mAb<TnT>rM-11-7 Fab A102E (Fab, V domains shown)
VH: QIQLVQSGPELKKPGETVKISCKASGYTFTDFSMHWVKQAPGKGLKWMGWINTETGEPTYADDFKGRFAFSLETSATTAYLQINNLKNEDTATYFCVRSHEMDYWGQGTSVTVSS
VL: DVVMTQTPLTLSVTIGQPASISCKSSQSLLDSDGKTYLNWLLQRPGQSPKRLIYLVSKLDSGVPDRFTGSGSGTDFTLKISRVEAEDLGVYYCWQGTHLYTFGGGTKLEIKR
notes: as for B1
B4: mAb<TnT>rM-11-7 Fab A102L (Fab, V domains shown)
VH: QIQLVQSGPELKKPGETVKISCKASGYTFTDFSMHWVKQAPGKGLKWMGWINTETGEPTYADDFKGRFAFSLETSATTAYLQINNLKNEDTATYFCVRSHLMDYWGQGTSVTVSS
VL: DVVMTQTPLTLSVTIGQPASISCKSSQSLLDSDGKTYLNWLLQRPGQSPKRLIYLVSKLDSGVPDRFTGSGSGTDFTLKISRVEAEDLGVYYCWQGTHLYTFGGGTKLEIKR
notes: as for B1
B5: mAb<TnT>rM-11-7 Fab A102N (Fab, V domains shown)
VH: QIQLVQSGPELKKPGETVKISCKASGYTFTDFSMHWVKQAPGKGLKWMGWINTETGEPTYADDFKGRFAFSLETSATTAYLQINNLKNEDTATYFCVRSHNMDYWGQGTSVTVSS
VL: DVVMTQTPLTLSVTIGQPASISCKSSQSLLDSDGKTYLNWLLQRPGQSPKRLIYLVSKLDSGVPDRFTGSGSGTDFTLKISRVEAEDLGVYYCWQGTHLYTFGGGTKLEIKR
notes: as for B1
B6: mAb<TnT>rM-11-7 Fab A102R (Fab, V domains shown)
VH: QIQLVQSGPELKKPGETVKISCKASGYTFTDFSMHWVKQAPGKGLKWMGWINTETGEPTYADDFKGRFAFSLETSATTAYLQINNLKNEDTATYFCVRSHRMDYWGQGTSVTVSS
VL: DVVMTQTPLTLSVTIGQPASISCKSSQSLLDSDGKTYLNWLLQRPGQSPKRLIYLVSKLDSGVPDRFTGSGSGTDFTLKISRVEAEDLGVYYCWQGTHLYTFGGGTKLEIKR
notes: as for B1
B7: mAb<TnT>rM-11-7 Fab A102I (Fab, V domains shown)
VH: QIQLVQSGPELKKPGETVKISCKASGYTFTDFSMHWVKQAPGKGLKWMGWINTETGEPTYADDFKGRFAFSLETSATTAYLQINNLKNEDTATYFCVRSHIMDYWGQGTSVTVSS
VL: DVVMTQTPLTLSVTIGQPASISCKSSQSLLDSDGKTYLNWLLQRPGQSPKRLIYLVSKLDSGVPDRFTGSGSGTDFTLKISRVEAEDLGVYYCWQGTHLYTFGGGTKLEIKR
notes: as for B1
B8: mAb<TnT>rM-11-7 Fab A102H (Fab, V domains shown)
VH: QIQLVQSGPELKKPGETVKISCKASGYTFTDFSMHWVKQAPGKGLKWMGWINTETGEPTYADDFKGRFAFSLETSATTAYLQINNLKNEDTATYFCVRSHHMDYWGQGTSVTVSS
VL: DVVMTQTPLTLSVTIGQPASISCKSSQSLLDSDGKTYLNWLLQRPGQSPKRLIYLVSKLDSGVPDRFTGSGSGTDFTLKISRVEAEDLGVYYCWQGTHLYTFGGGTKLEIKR
notes: as for B1
B9: mAb<TnT>rM-11-7 Fab A102Y (Fab, V domains shown)
VH: QIQLVQSGPELKKPGETVKISCKASGYTFTDFSMHWVKQAPGKGLKWMGWINTETGEPTYADDFKGRFAFSLETSATTAYLQINNLKNEDTATYFCVRSHYMDYWGQGTSVTVSS
VL: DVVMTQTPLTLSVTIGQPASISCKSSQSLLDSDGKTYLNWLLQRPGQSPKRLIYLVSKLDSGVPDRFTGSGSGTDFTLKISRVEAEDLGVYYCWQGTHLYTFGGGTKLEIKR
notes: as for B1
B10: mAb<TnT>rM-11-7 Fab A102F (Fab, V domains shown)
VH: QIQLVQSGPELKKPGETVKISCKASGYTFTDFSMHWVKQAPGKGLKWMGWINTETGEPTYADDFKGRFAFSLETSATTAYLQINNLKNEDTATYFCVRSHFMDYWGQGTSVTVSS
VL: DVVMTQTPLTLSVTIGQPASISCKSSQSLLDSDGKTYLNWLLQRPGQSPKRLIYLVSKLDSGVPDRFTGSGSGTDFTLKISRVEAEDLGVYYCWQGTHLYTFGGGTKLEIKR
notes: as for B1
B11: mAb<TnT>rM-11-7(A102W)-Fab(IgG1)-Qtag-Bi (Fab, V domains shown)
VH: QIQLVQSGPELKKPGETVKISCKASGYTFTDFSMHWVKQAPGKGLKWMGWINTETGEPTYADDFKGRFAFSLETSATTAYLQINNLKNEDTATYFCVRSHWMDYWGQGTSVTVSS
VL: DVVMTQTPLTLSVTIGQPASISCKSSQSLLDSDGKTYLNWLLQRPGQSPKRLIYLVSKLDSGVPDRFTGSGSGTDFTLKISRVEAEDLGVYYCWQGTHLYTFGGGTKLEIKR
notes: Murine Fab (IgG1) with a Qtag, produced in HEK FreeStyle 293-F cells, site-directed conjugated to biotin with Kutzneria albida transglutaminase; also called maturated biotinylated mAb<TnT>rM-11-7(A102W)-Fab

One assay has as its target T1, human cardiac troponin T (human, UniProt P45379 2-298).
T1 construct: Analyte in SPR was 'Recombinant human TnT (Roche, 37 kDa)'; also called cTnT; TnT
Description: SPR (Biacore 8K), 37 C, Fab captured from E. coli lysate by anti-mouse F(ab')2, recombinant human TnT as analyte. On the procedure:
Detailed kinetic investigations were performed at 37° C. on a GE Healthcare 8k instrument. A Biacore CM-5 series S sensor was mounted into the instrument and was preconditioned according to the manufacturer's instructions. The system buffer was HBS-ET (10 mM HEPES (pH 7.4), 150 mM NaCl, 1 mM EDTA, 0.05% (w/v) Tween® 20). The sample buffer was the system buffer supplemented with 1 mg/ml CMD (Carboxymethyldextran, Fluka). In one embodiment an anti-murine Fab fragment capture system was established on the CM5 biosensor. The rabbit polyclonal pAb anti M-IgG, F(ab′)₂ fragment (Cat. No. 315-005-047, Jackson Immuno Research) was immobilized according to the manufacturer's instructions using NHS/EDC chemistry. At 5 μl/min, 30 μg/ml RAMF(ab′)₂ in 10 mM sodium acetate buffer (pH 5.0) were immobilized at 10.000 RU on each flow cell. The sensor was subsequently saturated with 1 M ethanolamine pH 8.5. […] Recombinant human TnT (Roche, 37 kDa) was diluted in sample buffer at 30 nM and a concentration series was produced with 0 nM, 30 nM, 10 nM, 3.3 nM, 1.1 nM, 0.37 nM TnT concentration. The analyte concentration series were injected at 80 μl/min for 3 min association phase and the dissociation phase was monitored for 5 min. At the end of the analyte association phase a report point, “binding late” (BL) in response units (RU) was monitored. After each cycle of kinetic rates determination, the capture system was regenerated by a 15 seconds injection of 10-fold concentrated HBS-EP buffer followed by two 1 min injections of 100 mM HCl at 20 μl/min.
(In general: In SPR one partner is held on a chip, and binding of the other changes the refractive index at the surface.)
Take B1: the equilibrium dissociation constant (Kd) was found to be 15 nM, the koff was 0.029 s⁻¹, the kon came out at 1.9e+06 M⁻¹ s⁻¹ and the “t½ [min] (complex half-life)” value was 0.4 min.
In the case of B2, the Kd was less than 0.01 nM, the koff was less than 1e-05 s⁻¹, the kon was determined as 1.1e+06 M⁻¹ s⁻¹ and the “t½ [min] (complex half-life)” value was greater than 1160 min.
In the same order, the values of B3 are 9 nM, 0.0098 s⁻¹, 1.1e+06 M⁻¹ s⁻¹ and 1 min.
Take B4: the Kd is 13 nM, the dissociation rate constant (koff) is 0.009 s⁻¹, the kon amounted to 710000 M⁻¹ s⁻¹ and the “t½ [min] (complex half-life)” value is 1 min.
For the molecule B5, the Kd is 17 nM, the off-rate (koff) came to 0.056 s⁻¹, the on-rate constant (kon) was found to be 3.3e+06 M⁻¹ s⁻¹ and the “t½ [min] (complex half-life)” value came out at 0.2 min.
For B6, in that order: 2500 nM, 0.042 s⁻¹, 16000 M⁻¹ s⁻¹ and 0.3 min.
On to B7, for which the dissociation constant (Kd) turned out to be 18 nM, the koff is 0.032 s⁻¹, the on-rate (kon) amounted to 1.7e+06 M⁻¹ s⁻¹ and the “t½ [min] (complex half-life)” value worked out at 0.4 min.
For B8, the Kd worked out at 8 nM, the koff was determined as 0.0069 s⁻¹, the kon stood at 830000 M⁻¹ s⁻¹ and the “t½ [min] (complex half-life)” value was found to be 2 min.
For B9, in that order: 5 nM, 0.0033 s⁻¹, 710000 M⁻¹ s⁻¹ and 3 min.
With B10, the equilibrium dissociation constant (Kd) amounted to 1 nM, the dissociation rate constant (koff) was determined as 0.0012 s⁻¹, the on-rate constant (kon) turned out to be 900000 M⁻¹ s⁻¹ and the “t½ [min] (complex half-life)” value was determined as 10 min.

In the next assay the target is T1, human cardiac troponin T. In words: Elecsys ECL sandwich immunoassay, calibrator Cal1 (recTnT), reference: biotinylated wild type Fab of MAB11-7. The method, then: (§1) The antibody Fab fragment mAb<TnT>rM-11-7(A102W)-Fab(IgG1)-Qtag was produced as a biotinylated Fab fragment, i.e., mAb<TnT>rM-11-7(A102W)-Fab(IgG1)-Qtag-Bi according to Example 7 and was tested in a sandwich immuno assay (see FIG. 6). The Fab fragment mAb<TnT>rM-11-7(A102W)-Fab(IgG1)-Qtag-Bi was compared to the biotinylated wild type Fab-fragment of MAB11-7 (i.e. comprising a CDR3 of SEQ ID NO: 16) as comprised in the commercially available Roche Elecsys® assay, catalogue number 05092744190 (Roche Diagnostics GmbH, Mannheim, Germany). These biotinylated reagents were used as reagent 1 (RI) in the corresponding assay protocol. The ruthenylated detection antibody was the one comprised in the Roche Elecsys® assay, catalogue number 05092744190 (Roche Diagnostics GmbH, Mannheim, Germany). The ruthenylated detection antibody corresponds to the Elecsys® R2 reagent.
(§2) The assay follows assay protocol 2 of the cobas e analyzers, where sample, R1 and R2 are mixed in a first step for 9 min incubation, then the streptavidin coated magnetic beads are added in a second step for another 9 min incubation. […]
(§3) Elecsys® streptavidin-coated magnetic beads were always used in combination with one of the RI and R2 reagent bottles. Samples measured included sample diluent (Diluent Universal=buffer blank,) and the TnT Elecsys® assay commercial calibrators (Call ([…] recTnT) and Cal2 ([…] recTnT)).
B11: the “fold increase of Cal-1 signal against parental” value came to 1.7 fold.

The target in a further assay is T1, human cardiac troponin T. In words: Elecsys ECL sandwich immunoassay, biotinylated Fab as capture reagent R1, ruthenylated commercial detection antibody; reference: biotinylated wild type Fab of MAB11-7. The method, then: as §1
Measurements were performed on a Cobas E170 Module using the Troponin T hs assay protocol with a blank control (Diluent Universal, Id. 11732277122, Diluent Multi Assay, Id. 03609987170, Roche Diagnostics GmbH, Mannheim, Germany), Call and Cal2 from Troponin T hs CalSet (Id. 05092752190, Roche Diagnostics GmbH, Mannheim, Germany) using the Troponin T hs assay specifications. […]
As for B11, the “fold increase in sensitivity (signal to noise) against parental” value is roughly 2 fold.

Another assay addresses T1, human cardiac troponin T. In words: Elecsys ECL sandwich immunoassay, calibrator Cal2 (recTnT), reference: biotinylated wild type Fab of MAB11-7. The method, then:
as §1, §2, §3
For B11, the “fold increase of Cal-2 signal against parental” value amounted to 1.8 fold.

The term Kd denotes the constant that tells how readily two partners part at equilibrium. What is called koff is the first-order rate constant of dissociation. As a reminder, the kon is a measure of how fast the partners come together.
